# Target: HLA-A*02:01
# Experiment: IEDB peptide-MHC binding, purified MHC/competitive/radioactivity; ≥ and ≤ were set here for values at or beyond the usual limits of such assays
# Conditions: source organism: Homo sapiens
row,IC50,Sequence
1,0.026 µM,ALVGLFVLL
2,0.943 µM,FVTWHRYHL
3,0.385 µM,LIGNESFAL
4,0.676 µM,QVMSLHNLV
5,0.161 µM,TLDSQVMSL
6,0.357 µM,TLLVVMGTLV
7,0.029 µM,TLVALVGLFV
8,0.417 µM,VLHSFTDAI
9,0.161 µM,VTWHRYHLL

# Target: HLA-A*02:01
# Experiment: IEDB peptide-MHC binding, purified MHC/competitive/radioactivity; filed as Kd, often an IC50 or EC50 that approximates it; ≥ and ≤ were set here for values at or beyond the usual limits of such assays
# Conditions: source organism: Homo sapiens
row,Kd,Sequence
1,≥ 10 µM,AANDPIFVV
2,≥ 10 µM,AARPDDPTL
3,≥ 10 µM,ALDLAKKRV
4,1.35 µM,ALPYWNFAT
5,≥ 10 µM,ATGRNECDV
6,≥ 10 µM,CLERDLQRL
7,≥ 10 µM,GAQGQFPRV
8,4.54 µM,GTLVALVGL
9,≥ 10 µM,ITTQHWLGL
10,≥ 10 µM,LAFLQYRRL
11,1.52 µM,LLAFLQYRRL
12,3.57 µM,LLSCLGCKI
13,≥ 10 µM,LLSCLGCKIL
14,1.35 µM,LLVVMGTLV
15,≥ 10 µM,NCERKKPPV
16,≥ 10 µM,NCSVYDFFV
17,≥ 10 µM,QGRGQCTEV
18,2.63 µM,QLGYSYAIDL
19,≥ 10 µM,QMGRNSMKL
20,4.54 µM,SAANDPIFV
21,≥ 10 µM,STFSFRNAL
22,2.63 µM,TLLVVMGTL
23,≥ 10 µM,TTQHWLGLL
24,7.14 µM,VALVGLFVL
25,7.14 µM,VCMTVDSLV
26,≥ 10 µM,WLGLLGPNG
27,8.33 µM,WMKRFNPPA
28,≥ 10 µM,YTPLMETHL
